# Square brackets hold non-standard residues; d marks the D form. Ends that are not written are not given here. Nle = CCCC[C@H](N)C(=O)O
# What was measured:
# [1] = biological target: T1, human melanocortin-5 receptor (hMC5-R) (human, UniProt P33032 1-325); experiment: 125I-NDP-α-MSH competition, hMC5-R membranes
# T1 construct: whole, on cells; membranes prepared from hMC5-R cells were used; also called Melanocortin Receptor 5
# Protocol: (§1) The competitive inhibition binding assay was conducted using membranes prepared from hMC3-R, hMC4-R, hMC5-R, and B-16 mouse melanoma cells (containing MC1-R) using 0.4 nM ¹²⁵I-NDP-alpha-MSH (New England Nuclear, Boston, Mass., USA) in 50 mM HEPES buffer containing 1 mM MgCl₂, 2 mM CaCl₂, and 5 mM KCl, at pH 7.2. […] Incubation was for 90 minutes at room temperature, after which the assay mixture was filtered and the membranes washed three times with ice cold buffer. The filter was dried and counted in a gamma counter for remaining radioactivity bound to the membranes. 100% specific binding was defined as the difference in radioactivity (cpm) bound to cell membranes in the absence and presence of 1 μM α-MSH. […] Each assay was conducted in triplicate and the actual mean valves are described.
# (§2) The methods and assays set forth in Example 1 were followed.
# [2] = biological target: T2, melanocortin-1 receptor (MC1-R) of B-16 mouse melanoma cells (mouse, UniProt Q01727 1-315); experiment: 125I-NDP-α-MSH competition, B-16 membranes
# T2 construct: whole, on cells; membranes prepared from the cells were used; also called Melanocortin Receptor 1
# Protocol: as §1, §2
# [3] = biological target: T3, human melanocortin-3 receptor (hMC3-R) (human, UniProt P41968 1-323); experiment: 125I-NDP-α-MSH competition, hMC3-R membranes
# T3 construct: whole, on cells; membranes prepared from hMC3-R cells were used; also called Melanocortin Receptor 3
# Protocol: as §1, §2
# [4] = biological target: T4, human melanocortin-4 receptor (hMC4-R) (human, UniProt P32245 1-332); experiment: 125I-NDP-α-MSH competition, hMC4-R membranes
# T4 construct: whole, on cells; membranes prepared from hMC4-R cells were used; also called Melanocortin Receptor 4
# Protocol: as §1, §2
# T4 sequence (P32245 whole entry): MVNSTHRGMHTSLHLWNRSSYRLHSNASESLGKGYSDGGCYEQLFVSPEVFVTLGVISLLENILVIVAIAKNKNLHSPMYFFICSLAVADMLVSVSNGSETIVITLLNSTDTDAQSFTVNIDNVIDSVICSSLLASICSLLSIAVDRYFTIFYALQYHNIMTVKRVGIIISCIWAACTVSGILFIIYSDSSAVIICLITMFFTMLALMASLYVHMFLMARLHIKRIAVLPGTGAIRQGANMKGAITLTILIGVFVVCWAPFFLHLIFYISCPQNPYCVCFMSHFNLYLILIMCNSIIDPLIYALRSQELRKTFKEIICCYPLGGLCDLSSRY
# T1 sequence (P33032 whole entry): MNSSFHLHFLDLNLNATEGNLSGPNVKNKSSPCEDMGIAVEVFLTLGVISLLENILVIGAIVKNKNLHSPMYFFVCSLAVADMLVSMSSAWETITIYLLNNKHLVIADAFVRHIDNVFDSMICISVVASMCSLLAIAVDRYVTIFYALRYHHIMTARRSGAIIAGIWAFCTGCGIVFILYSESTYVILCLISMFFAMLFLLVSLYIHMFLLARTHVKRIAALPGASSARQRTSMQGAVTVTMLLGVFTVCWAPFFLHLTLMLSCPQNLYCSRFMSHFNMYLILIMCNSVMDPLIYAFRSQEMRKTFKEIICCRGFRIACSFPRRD
# T2 sequence (Q01727 whole entry): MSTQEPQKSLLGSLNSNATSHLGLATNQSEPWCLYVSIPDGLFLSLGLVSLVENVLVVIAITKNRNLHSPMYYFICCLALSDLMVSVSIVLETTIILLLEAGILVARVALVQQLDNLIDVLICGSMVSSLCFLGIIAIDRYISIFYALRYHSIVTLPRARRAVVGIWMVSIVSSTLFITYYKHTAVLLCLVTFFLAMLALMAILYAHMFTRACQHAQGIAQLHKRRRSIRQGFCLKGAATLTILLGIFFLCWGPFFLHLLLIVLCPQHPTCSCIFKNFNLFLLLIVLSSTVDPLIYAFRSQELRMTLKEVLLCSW
# T3 sequence (P41968 whole entry): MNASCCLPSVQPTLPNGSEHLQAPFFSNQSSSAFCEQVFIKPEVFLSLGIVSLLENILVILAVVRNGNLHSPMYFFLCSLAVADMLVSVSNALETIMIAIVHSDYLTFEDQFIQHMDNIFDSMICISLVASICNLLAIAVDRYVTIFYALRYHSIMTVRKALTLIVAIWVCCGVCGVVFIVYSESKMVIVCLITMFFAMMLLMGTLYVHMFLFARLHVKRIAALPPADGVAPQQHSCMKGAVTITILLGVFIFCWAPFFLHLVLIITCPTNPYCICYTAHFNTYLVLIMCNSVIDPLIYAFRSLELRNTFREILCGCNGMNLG
Binder,% Inhibition at 1 µM [1] [%],% Inhibition at 1 µM [2] [%],% Inhibition at 1 µM [3] [%],% Inhibition at 1 µM [4] [%]
"YV[Nle]GCHFRWDRF-NH2 (also: oxorhenium(V) N3S1 chelate: C5 SG + backbone N of X3, G4, C5, bridge at 5 via Re(V)=O, other end not in the chain) [metallopeptide 4-8]",45,13,33,–
"YV[Nle]GHFRWDRCF-NH2 (also: oxorhenium(V) N3S1 chelate: C11 SG + backbone N of D9, R10, C11, bridge at 11 via Re(V)=O, other end not in the chain) [metallopeptide 4-2]",51,75,49,23
YVC[Nle]GHFRWDRF-NH2 (bridge (positions not given here); not fully specified (bridges); printed as Tyr-Val-Cys-Nle-Gly-His-Phe-Arg-Trp-Asp-Arg-Phe-NH2.; also: oxorhenium(V) N3S1 complex) [metallopeptide 4-10],17,28,10,–
"YVXGHFRWDRF (Nle 3; C-terminal amide, not complexed to Re) [[Nle3]-γ-MSH parent polypeptide Tyr-Val-Nle-Gly-His-Phe-Arg-Trp-Asp-Arg-Phe-NH2]",43,83,85,58
Ac-SYS[Nle]E[dC]HFRWGKPV-NH2 (also: oxorhenium(V) N3S1 chelate at D-Cys 6) [metallopeptide 2-9],2,92,13,35
Ac-SYS[Nle]EHFRWGK[dC]PV-NH2 (also: oxorhenium(V) N3S1 chelate at D-Cys12) [metallopeptide 2-3],38,91,41,25
Ac-SYS[Nle]EH[dC]FRWGKPV-NH2 (also: oxorhenium(V) N3S1 chelate at D-Cys 7) [metallopeptide 2-8],29,69,0,25
Ac-SYS[Nle]EHFRWG[dC]KPV-NH2 (also: oxorhenium(V) N3S1 chelate at D-Cys11) [metallopeptide 2-4],21,91,27,40
Ac-SYS[Nle]EHFRWGKG[dC]V-NH2 (also: oxorhenium(V) N3S1 chelate at D-Cys13) [metallopeptide 2-2],32,93,26,28
"YV[Nle]GHFCRWDRF-NH2 (also: oxorhenium(V) N3S1 chelate: C7 SG + backbone N of H5, F6, C7, bridge at 7 via Re(V)=O, other end not in the chain) [metallopeptide 4-6]",24,–,–,–
YVXGHFRWDRFC (not fully specified; Nle 3; C-terminal amide; Re complexed at Cys 12) [metallopeptide 4-1],41,56,69,36
SYSXEHFRWGKGVC (N-terminal acetyl; Nle 4 (X in letters); D-Cys 14; C-terminal amide; Re complexed at D-Cys 14) [metallopeptide 2-1],53,97,72,46
Ac-SY[dC]S[Nle]EHFRWGKPV-NH2 (also: oxorhenium(V) N3S1 chelate at D-Cys3) [metallopeptide 2-12],17,97,21,47
Ac-SYS[Nle]EHFR[dC]WGKPV-NH2 (also: oxorhenium(V) N3S1 chelate at D-Cys9) [metallopeptide 2-6],6,46,2,6
Ac-SYS[Nle][dC]EHFRWGKPV-NH2 (also: oxorhenium(V) N3S1 chelate at D-Cys5) [metallopeptide 2-10],0,65,0,18
"YV[Nle]GHFRCWDRF-NH2 (also: oxorhenium(V) N3S1 chelate: C8 SG + backbone N of F6, R7, C8, bridge at 8 via Re(V)=O, other end not in the chain) [metallopeptide 4-5]",68,89,87,74
"YV[Nle]GHFRWCDRF-NH2 (also: oxorhenium(V) N3S1 chelate: C9 SG + backbone N of R7, W8, C9, bridge at 9 via Re(V)=O, other end not in the chain) [metallopeptide 4-4]",47,52,20,39
Ac-SYS[dC][Nle]EHFRWGKPV-NH2 (also: oxorhenium(V) N3S1 chelate at D-Cys4) [metallopeptide 2-11],0,95,–,37
Ac-SYS[Nle]EHF[dC]RWGKPV-NH2 (also: oxorhenium(V) N3S1 chelate at D-Cys8) [metallopeptide 2-7],0,54,0,6
"YV[Nle]CGHFRWDRF-NH2 (also: oxorhenium(V) N3S1 chelate: C4 SG + backbone N of V2, X3, C4, bridge at 4 via Re(V)=O, other end not in the chain) [metallopeptide 4-9]",43,–,19,–
"YV[Nle]GHFRWDCRF-NH2 (also: oxorhenium(V) N3S1 chelate: C10 SG + backbone N of W8, D9, C10, bridge at 10 via Re(V)=O, other end not in the chain) [metallopeptide 4-3]",65,44,18,23
"YV[Nle]GHCFRWDRF-NH2 (also: oxorhenium(V) N3S1 chelate: C6 SG + backbone N of G4, H5, C6, bridge at 6 via Re(V)=O, other end not in the chain) [metallopeptide 4-7]",15,–,17,–
Ac-SYS[Nle]EHFRW[dC]GKPV-NH2 (also: oxorhenium(V) N3S1 chelate at D-Cys10) [metallopeptide 2-5],0,43,0,4

# Source: patent publication US20050282739A1 (PALATIN TECHNOLOGIES, published 2005)
